# Laboratory results reported in patent publication US6936708, “Expression of Alfin 1 and methods for producing transgenic plants having increased root growth and root specific gene activation” (Arizona Board of Regents, acting for and on behalf of …).
# T1: Alfin1 (Medicago sativa, UniProt Q40359 Q40359:1-257)
# T1 sequence: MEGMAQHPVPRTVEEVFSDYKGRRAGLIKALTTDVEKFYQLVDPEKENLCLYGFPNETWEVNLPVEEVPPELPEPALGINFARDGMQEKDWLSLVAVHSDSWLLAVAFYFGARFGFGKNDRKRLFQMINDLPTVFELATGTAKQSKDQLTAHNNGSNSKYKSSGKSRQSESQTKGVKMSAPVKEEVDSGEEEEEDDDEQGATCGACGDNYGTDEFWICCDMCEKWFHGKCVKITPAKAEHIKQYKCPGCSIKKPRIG
# Columns and labels:
# [1] = biological target: T1, Alfin1; assay: DNA sequence that binds Alfin1 in vitro
# From the text: (§1) To identify DNA sequences that are recognized by Alfin1 protein, the purified Alfin1 protein was used in the "random DNA binding" assay (See: Rauscher III F. J., Morris J. F., Tournay O. E., Cook D. M., Curran T. *Binding of the Wilm's tumor locus* zinc finger protein to the EGR-1 consensus sequence. Science, 1990; 250, 1259–1262) and the bound DNA purified by four rounds of PCR amplification and binding, followed by cloning of the isolated sequences.
# [2] = biological target: T1, Alfin1; assay: DNA sequence that binds Alfin1 in vitro; listed identical to SEQ 4
# From the text: as §1
Binder,binding result [1],binding result [2]
Alfin1 binding sequence SEQ 8 (dsDNA) DNA 1: GACGGCAGAAGGGAGAAACGTGGAGAATC DNA 2: GATTCTCCACGTTTCTCCCTTCTGCCGTC,binds,
Alfin1 binding sequence SEQ 6 (dsDNA) DNA 1: GACGGGTAGGGTGTGGGGGGTGTTTTATT DNA 2: AATAAAACACCCCCCACACCCTACCCGTC,binds,
Alfin1 binding sequence SEQ 9 (dsDNA) DNA 1: GACGGCGGGAAGGAGTGTGGTAGAGAGCC DNA 2: GGCTCTCTACCACACTCCTTCCCGCCGTC,binds,
Alfin1 binding sequence SEQ 5 (dsDNA) DNA 1: GACGCAAAGGGGGTGGGGACGGCGCTTTT DNA 2: AAAAGCGCCGTCCCCACCCCCTTTGCGTC,,binds
Alfin1 binding sequence SEQ 10 (dsDNA) DNA 1: GACGAAGGAAGGACGGCAGCGTGTTGC DNA 2: GCAACACGCTGCCGTCCTTCCTTCGTC,binds,
Alfin1 binding sequence SEQ 7 (dsDNA) DNA 1: GACGGGGATAGGTGAGGTGGAGGGACAAT DNA 2: ATTGTCCCTCCACCTCACCTATCCCCGTC,binds,
Alfin1 binding sequence SEQ 4 (dsDNA) DNA 1: GACGCAAAGGGGGTGGGGACGGCGCTTTT DNA 2: AAAAGCGCCGTCCCCACCCCCTTTGCGTC,binds,
